{"source": "paper PMC12225019", "biological_target": "TRIM21 (tripartite motif-containing 21) (UniProt P19474)", "test": "co-IP, immunoblot", "settings": "reference: HMGA2 wild type; sites S105"}
{"substance": "HMGA2 (high mobility group protein A2) (from UniProt P52926) HMGA2 S105A", "values": [{"measurement": "binding against the reference", "result": "weaker"}]}
